# Results from patent US20250049939A1 (TUBULIS, published 2025).
# Changes are numbered by the printed parent chain.
# T1: human wildtype FLT3 expressed on Ba/F3 cells (human, UniProt P36888 27-993)
# T1 construct: also called hFLT3 wt; Ba/F3-FLT3
# T1 sequence: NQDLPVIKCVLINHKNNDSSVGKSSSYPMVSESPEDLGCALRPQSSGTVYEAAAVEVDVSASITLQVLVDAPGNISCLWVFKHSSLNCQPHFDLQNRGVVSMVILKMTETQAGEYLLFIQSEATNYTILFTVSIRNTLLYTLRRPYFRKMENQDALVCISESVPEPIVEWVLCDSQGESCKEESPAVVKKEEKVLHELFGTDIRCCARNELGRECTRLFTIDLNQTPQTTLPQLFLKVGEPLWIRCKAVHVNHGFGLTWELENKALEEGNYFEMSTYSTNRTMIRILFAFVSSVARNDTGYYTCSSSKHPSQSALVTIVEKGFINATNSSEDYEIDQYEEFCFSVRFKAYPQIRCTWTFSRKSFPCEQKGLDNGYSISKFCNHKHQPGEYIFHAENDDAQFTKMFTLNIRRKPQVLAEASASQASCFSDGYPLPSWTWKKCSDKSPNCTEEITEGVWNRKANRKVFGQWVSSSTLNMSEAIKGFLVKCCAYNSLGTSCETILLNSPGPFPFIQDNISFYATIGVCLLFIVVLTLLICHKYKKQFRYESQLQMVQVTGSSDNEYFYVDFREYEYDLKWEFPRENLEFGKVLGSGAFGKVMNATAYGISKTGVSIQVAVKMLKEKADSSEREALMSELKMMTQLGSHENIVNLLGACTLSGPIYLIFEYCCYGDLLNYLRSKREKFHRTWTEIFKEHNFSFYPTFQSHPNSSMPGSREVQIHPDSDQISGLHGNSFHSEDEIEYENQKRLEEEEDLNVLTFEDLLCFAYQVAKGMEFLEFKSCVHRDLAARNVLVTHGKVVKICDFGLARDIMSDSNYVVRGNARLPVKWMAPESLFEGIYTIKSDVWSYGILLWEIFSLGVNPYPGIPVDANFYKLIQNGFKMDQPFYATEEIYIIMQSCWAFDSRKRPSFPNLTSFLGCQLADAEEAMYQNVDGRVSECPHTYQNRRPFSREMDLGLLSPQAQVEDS
# T2: recombinant human FLT3 protein (human, UniProt P36888 27-541)
# T2 construct: also called recombinant FLT3 protein; human recombinant FLT3 protein (10445-H08H, Sino Biological)
# T2 sequence: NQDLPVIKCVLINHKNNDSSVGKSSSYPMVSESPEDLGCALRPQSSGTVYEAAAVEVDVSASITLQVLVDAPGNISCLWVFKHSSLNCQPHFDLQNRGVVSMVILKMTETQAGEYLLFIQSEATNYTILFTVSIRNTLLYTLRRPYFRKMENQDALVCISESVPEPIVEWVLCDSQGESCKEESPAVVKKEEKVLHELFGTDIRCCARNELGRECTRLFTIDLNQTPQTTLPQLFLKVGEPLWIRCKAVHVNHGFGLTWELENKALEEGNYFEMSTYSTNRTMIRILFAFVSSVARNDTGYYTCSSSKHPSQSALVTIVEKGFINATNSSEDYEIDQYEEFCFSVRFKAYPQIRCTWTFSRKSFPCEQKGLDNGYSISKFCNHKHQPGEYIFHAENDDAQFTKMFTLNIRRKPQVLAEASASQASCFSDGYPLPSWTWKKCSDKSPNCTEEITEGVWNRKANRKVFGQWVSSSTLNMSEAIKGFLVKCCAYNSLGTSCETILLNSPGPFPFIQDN
# B1: Humanized clone 13 of 20D9 (VH3 + VK1; HC-LALA, same as Clone #3 but with LALA mutation in HC constant region) (antibody, human IgG1, kappa, L234A L235A)
# heavy: not shown
# light: DIQMTQSPSVLSASVGDRVTINCRASQNINKELNWYQQKLGEAPKLLIYNTNNLQSGVPSRFSGSGSGTDYTLTISSLQPEDVATYFCFQHKSWPLTFGSGTKLEIKRTVAAPSVFIFPPSDEQLKSGTASVVCLLNNFYPREAKVQWKVDNALQSGNSQESVTEQDSKDSTYSLSSTLTLSKADYEKHKVYACEVTHQGLSSPVTKSFNRGEC
# notes: also called #3-LALA; #3-LALA mab
# B2: #5 (antibody, human IgG1, kappa, V domains shown)
# VH: QVMLVESGGGVVQPGRSLRLSCAASGFTFNNYWMTWVRQAPGKGLEWIASITKTGGGTYYPDSVKGRFTISRDNAKSTLYLQMNSLRSEDTATYYCTTLQQLGVMDAWGQGASVTVSS
# VL: DIQMTQSPSVLSASVGDRVTITCRASQNINKELNWYQQKLGKAPKLLIYNTNNLQSGVPSRFSGSGSGTDFTLTISSLQPEDFATYYCFQHKSWPLTFGSGTKLEIKR
# notes: also called Humanized clone 5 of 20D9 (VH1 + VK2); Clone #5
# B3: Humanized clone 4 of 20D9 (VH4 + VK1) (antibody, human IgG1, kappa, V domains shown)
# VH: B2 VH with M3Q, V37I, P61A, A75S, S77N, S88A, T93V, A112T, S113L
# VL: B2 VL with T22N, K42E, F71Y, F83V, Y87F
# B4: #10 (antibody, human IgG1, kappa, V domains shown)
# VH: B2 VH with A75S, S88A
# VL: B2 VL with V10S, N28S, L40P, S100Q
# notes: also called Humanized clone 10 of 20D9 (VH2 + VK3); Clone #10
# B5: #6 (antibody, human IgG1, kappa, V domains shown)
# VH: B2 VH with A75S, S88A
# VL: B2 VL
# notes: also called Humanized clone 6 of 20D9 (VH2 + VK2); Clone #6
# B6: Humanized clone 1 of 20D9 (VH1 + VK1) (antibody, human IgG1, kappa, V domains shown)
# VH: B2 VH
# VL: B2 VL with T22N, K42E, F71Y, F83V, Y87F
# B7: #8 (antibody, human IgG1, kappa, V domains shown)
# VH: B2 VH with M3Q, V37I, P61A, A75S, S77N, S88A, T93V, A112T, S113L
# VL: B2 VL
# notes: also called Humanized clone 8 of 20D9 (VH4 + VK2); Clone #8
# B8: Humanized clone 2 of 20D9 (VH2 + VK1) (antibody, human IgG1, kappa, V domains shown)
# VH: B2 VH with A75S, S88A
# VL: B2 VL with T22N, K42E, F71Y, F83V, Y87F
# B9: #9 (antibody, human IgG1, kappa, V domains shown)
# VH: B2 VH
# VL: B2 VL with V10S, N28S, L40P, S100Q
# notes: also called Humanized clone 9 of 20D9 (VH1 + VK3); Clone #9
# B10: #11 (antibody, human IgG1, kappa, V domains shown)
# VH: B2 VH with M3Q, P61A, A75S, S77N, S88A, T93V, A112T, S113L
# VL: B2 VL with V10S, N28S, L40P, S100Q
# notes: also called Humanized clone 11 of 20D9 (VH3 + VK3); Clone #11
# B11: #7 (antibody, human IgG1, kappa, V domains shown)
# VH: B2 VH with M3Q, P61A, A75S, S77N, S88A, T93V, A112T, S113L
# VL: B2 VL
# notes: also called Humanized clone 7 of 20D9 (printed as VH3 + VK29); Clone #7
# B12: #12 (antibody, human IgG1, kappa, V domains shown)
# VH: B2 VH with M3Q, V37I, P61A, A75S, S77N, S88A, T93V, A112T, S113L
# VL: B2 VL with V10S, N28S, L40P, S100Q
# notes: also called Humanized clone 12 of 20D9 (VH4 + VK3); Clone #12
# B13: 29H1 chimeric anti-FLT3 monoclonal antibody (antibody, V domains shown)
# VH: EVKLEESGGGLVQPGGSMKFFCVASGFTFSNYWMNWVRQSPEKGLEWVAQIKLKSDNYATRYAESVKGRFTISRDDSKSSVNLQMNNLRAEDTGIYYCTVSLARSDYWGQGTTLTVSS
# VL: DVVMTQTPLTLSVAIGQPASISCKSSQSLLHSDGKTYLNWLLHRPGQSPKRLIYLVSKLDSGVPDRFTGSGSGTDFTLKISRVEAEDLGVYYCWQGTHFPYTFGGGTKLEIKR
# B14: 27E7 chimeric anti-FLT3 monoclonal antibody (antibody, V domains shown)
# VH: B13 VH with G10D, F20L, F21S, S30R, K52R, R61H, I72M, N82Y, N87T
# VL: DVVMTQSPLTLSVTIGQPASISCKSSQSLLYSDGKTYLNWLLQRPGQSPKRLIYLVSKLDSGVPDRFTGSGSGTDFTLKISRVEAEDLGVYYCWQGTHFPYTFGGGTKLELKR
# B15: 30B12 chimeric anti-FLT3 monoclonal antibody (antibody, V domains shown)
# VH: QVQLKVSGPGLVQPSQTLSLTCAVSGFSLSNYHVSWVRQPPGKGLEWIAAISSGGSTYYNSPLKSRLSISRDTSKSQVFLKMNSLQTEDTAIYFCTGEDGYTFGNVMDAWGQGASVTVSS
# VL: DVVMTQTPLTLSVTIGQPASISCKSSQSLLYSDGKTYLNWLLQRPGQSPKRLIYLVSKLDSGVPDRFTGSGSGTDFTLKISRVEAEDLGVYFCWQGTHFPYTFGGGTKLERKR
# B16: 4B12 chimeric anti-FLT3 monoclonal antibody (antibody, V domains shown)
# VH: QVQLQQSGPGLVQPSQTLSLTCTVSGFSLTSYNVNWVRQPPGKGLEWIGAMWRGGGTDYNPALKSRLSISRDTSKSQVFLKMNRLQTEDTAIYFCTRGFGDYWGQGVMVTVSS
# VL: DIQMTQTPLSLSVAIGQSASISCKSSQSLKYSDGKTYLNWVFQSPGQSPKRLIYQVSKLDSGVPDRFSGTGSETDFTLKISRVEAEDLGVYYCCQGSYSPSTFGAGTKLELKR
# notes: also called 4B12 mab
# Biological target: T3, CSF1R on Ba/F3 cells (UniProt P07333 20-972, limits assumed)
# T3 construct: whole, on cells
# T3 sequence (P07333 20-972 limits assumed): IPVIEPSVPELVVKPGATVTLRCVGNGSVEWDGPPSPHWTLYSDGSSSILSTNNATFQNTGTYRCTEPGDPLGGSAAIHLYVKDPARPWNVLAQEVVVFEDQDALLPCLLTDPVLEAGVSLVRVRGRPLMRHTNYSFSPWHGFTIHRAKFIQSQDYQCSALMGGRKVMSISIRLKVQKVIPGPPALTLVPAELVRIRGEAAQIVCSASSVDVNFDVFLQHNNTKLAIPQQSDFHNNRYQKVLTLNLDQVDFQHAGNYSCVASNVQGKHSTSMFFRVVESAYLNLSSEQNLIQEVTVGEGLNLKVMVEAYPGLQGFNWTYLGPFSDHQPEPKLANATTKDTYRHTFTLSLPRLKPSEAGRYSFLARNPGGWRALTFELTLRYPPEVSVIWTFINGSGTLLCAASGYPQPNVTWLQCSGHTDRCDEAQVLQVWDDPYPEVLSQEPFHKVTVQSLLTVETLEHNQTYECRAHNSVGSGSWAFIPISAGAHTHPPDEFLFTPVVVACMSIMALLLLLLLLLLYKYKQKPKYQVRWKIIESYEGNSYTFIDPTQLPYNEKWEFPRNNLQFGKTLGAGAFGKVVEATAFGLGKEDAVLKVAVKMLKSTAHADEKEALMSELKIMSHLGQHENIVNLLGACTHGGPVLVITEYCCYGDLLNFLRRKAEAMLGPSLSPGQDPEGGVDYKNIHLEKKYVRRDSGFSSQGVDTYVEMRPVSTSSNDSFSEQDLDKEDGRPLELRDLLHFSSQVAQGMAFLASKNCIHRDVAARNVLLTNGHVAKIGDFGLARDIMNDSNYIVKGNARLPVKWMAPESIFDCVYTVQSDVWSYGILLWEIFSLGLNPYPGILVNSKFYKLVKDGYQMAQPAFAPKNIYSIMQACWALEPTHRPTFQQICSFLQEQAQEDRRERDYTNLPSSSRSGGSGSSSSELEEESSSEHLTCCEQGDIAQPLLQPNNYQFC
# Test: flow cytometry, cell surface binding to Ba/F3 pMIY cells expressing CSF-1R, MFI ratio normalized to IgG1, mean ± s.d. of n=3
row,Binder,binding result
1,B1,no binding

# Biological target: T4, PDGFRα on Ba/F3 cells (UniProt P16234 24-1089, limits assumed)
# T4 construct: whole, on cells
# T4 sequence (P16234 24-1089 limits assumed): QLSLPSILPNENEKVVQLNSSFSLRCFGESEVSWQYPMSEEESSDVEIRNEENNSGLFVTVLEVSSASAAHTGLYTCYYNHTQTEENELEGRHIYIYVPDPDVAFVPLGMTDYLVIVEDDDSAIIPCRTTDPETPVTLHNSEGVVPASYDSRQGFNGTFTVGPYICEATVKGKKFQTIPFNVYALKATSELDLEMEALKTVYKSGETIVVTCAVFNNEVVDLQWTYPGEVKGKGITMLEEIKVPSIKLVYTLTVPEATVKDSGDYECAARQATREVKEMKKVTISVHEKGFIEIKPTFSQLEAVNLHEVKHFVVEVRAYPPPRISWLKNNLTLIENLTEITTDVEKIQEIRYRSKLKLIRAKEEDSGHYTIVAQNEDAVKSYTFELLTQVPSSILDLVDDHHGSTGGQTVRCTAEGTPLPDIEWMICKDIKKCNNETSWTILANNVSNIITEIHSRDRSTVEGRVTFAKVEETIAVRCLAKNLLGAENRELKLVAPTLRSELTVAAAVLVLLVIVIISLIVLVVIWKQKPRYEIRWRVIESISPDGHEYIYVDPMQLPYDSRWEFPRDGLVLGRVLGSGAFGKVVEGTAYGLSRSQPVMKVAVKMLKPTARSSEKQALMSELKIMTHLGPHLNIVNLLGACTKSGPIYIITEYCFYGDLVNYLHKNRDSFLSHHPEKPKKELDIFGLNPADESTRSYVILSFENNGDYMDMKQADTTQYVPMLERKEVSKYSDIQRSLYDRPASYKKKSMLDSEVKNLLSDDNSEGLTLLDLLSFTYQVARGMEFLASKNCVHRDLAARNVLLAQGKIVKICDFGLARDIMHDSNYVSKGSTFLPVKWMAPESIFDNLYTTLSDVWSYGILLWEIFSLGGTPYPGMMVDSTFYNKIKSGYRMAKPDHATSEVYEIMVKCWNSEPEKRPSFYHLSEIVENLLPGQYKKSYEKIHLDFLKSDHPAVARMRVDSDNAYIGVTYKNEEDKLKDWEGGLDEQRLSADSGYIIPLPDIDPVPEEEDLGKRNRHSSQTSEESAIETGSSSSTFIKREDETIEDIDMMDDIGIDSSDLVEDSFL
# Test: flow cytometry, cell surface binding to Ba/F3 pMIY cells expressing PDGFRα, MFI ratio normalized to IgG1, mean ± s.d. of n=3
row,Binder,binding result
1,B1,no binding

# Biological target: T5, human CD64 (high affinity Fc receptor, FCGR1) on cells (human, UniProt P12314 16-374)
# T5 construct: whole, on cells; also called hCD64; human FCGR1
# T5 sequence (P12314 16-374): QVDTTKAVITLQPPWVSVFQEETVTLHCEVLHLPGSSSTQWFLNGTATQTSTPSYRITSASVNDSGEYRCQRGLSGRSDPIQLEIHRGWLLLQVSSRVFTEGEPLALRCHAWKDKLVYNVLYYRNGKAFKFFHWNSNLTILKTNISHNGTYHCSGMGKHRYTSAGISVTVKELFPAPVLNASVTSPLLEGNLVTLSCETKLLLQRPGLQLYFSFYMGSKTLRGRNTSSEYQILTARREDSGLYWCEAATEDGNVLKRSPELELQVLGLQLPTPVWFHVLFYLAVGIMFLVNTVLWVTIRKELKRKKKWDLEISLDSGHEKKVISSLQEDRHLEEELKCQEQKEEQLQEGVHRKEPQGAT
# Test: flow cytometry, cell surface binding to Ba/F3-pMIY cells expressing CD64, specific MFI, mean ± s.d. of n=3
row,Binder,binding result
1,B1,binds

# Biological target: T1, human wildtype FLT3 expressed on Ba/F3 …
# Test: flow cytometry, cell surface binding to Ba/F3 cells expressing human FLT3 (results of FIG. 14 summarized)
row,Binder,Binding to human FLT3 (MFI ratio to IgG1 control)
1,B2,42.4
2,B3,98.2
3,B4,20.2
4,B5,41.3
5,B6,96
6,B7,43.7
7,B8,96
8,B9,21.3
9,B10,20.5
10,B11,45.7
11,B12,24.8

# Biological target: T6, c-KIT on Ba/F3 cells (UniProt P10721 26-976, limits assumed)
# T6 construct: whole, on cells
# T6 sequence (P10721 26-976 limits assumed): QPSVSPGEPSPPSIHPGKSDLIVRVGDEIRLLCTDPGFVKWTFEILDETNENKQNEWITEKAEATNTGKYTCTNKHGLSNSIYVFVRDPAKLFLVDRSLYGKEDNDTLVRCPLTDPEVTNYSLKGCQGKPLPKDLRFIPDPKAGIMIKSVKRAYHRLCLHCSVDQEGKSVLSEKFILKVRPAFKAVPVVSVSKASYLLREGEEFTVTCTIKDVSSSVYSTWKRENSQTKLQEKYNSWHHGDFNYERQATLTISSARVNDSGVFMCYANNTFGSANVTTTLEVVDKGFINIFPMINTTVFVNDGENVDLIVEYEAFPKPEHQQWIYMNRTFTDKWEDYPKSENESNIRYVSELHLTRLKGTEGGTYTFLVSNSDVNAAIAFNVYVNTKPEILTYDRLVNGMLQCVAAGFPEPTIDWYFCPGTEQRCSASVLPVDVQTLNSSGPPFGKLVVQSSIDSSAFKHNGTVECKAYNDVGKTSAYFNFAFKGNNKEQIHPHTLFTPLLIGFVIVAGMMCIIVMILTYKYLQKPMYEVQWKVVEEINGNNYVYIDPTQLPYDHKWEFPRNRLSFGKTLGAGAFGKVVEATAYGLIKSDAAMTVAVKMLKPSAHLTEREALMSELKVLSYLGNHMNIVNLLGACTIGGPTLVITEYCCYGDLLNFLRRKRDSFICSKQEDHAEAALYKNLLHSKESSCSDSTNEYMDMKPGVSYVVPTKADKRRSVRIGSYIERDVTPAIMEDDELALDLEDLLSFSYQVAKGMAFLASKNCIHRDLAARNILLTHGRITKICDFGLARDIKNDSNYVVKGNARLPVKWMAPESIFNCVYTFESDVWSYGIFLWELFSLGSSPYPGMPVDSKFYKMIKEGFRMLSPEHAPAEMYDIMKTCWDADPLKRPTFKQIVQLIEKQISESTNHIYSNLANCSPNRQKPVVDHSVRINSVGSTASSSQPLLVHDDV
# Test: flow cytometry, cell surface binding to Ba/F3 pMIY cells expressing c-KIT, MFI ratio normalized to IgG1, mean ± s.d. of n=3
row,Binder,binding result
1,B1,no binding

# Biological target: CD16 (Fc gamma receptor) on Ba/F3 cells (human, UniProt P08637 17-254)
# Sequence (P08637 17-254 limits assumed): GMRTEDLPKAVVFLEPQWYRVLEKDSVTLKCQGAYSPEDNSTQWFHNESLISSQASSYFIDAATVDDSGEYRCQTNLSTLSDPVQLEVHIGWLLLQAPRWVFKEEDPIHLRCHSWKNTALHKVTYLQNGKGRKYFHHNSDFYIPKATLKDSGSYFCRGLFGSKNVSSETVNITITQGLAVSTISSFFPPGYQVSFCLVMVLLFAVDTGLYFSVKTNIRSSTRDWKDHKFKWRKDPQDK
# Test: flow cytometry, cell surface binding to Ba/F3-pMIY cells expressing CD16, specific MFI, mean ± s.d. of n=3
row,Binder,binding result
1,B1,no binding

# Biological target: T2, recombinant human FLT3 protein
# Test: ELISA with recombinant human FLT3 coated to the plate (results of FIG. 13 summarized)
# Protocol: (§1) Maxisorp plates were coated with human recombinant FLT3 protein (10445-H08H, Sino Biological). […] For detection, Attophos Fluorescent Substrate System (S1000, Promega) was applied. The fluorescence was read with excitation of 405 nm and emission at 500-550 nm. The calculation of the dissociation constant KD was performed using GraphPad Prism version 9.4.0.
# The 12 clones were subsequently analysed in ELISA assays (FIG. 13). Therefore, recombinant human FLT3 was coated on plates and incubated with the antibody candidates. […] Mean±s.d. of n=3 biological replicates.
row,Binder,Kd
1,B2,0.0293 µg/mL
2,B3,0.011 µg/mL
3,B4,0.0778 µg/mL
4,B5,0.0335 µg/mL
5,B6,0.0114 µg/mL
6,B7,0.0293 µg/mL
7,B8,0.0114 µg/mL
8,B9,0.0834 µg/mL
9,B10,0.112 µg/mL
10,B11,0.0371 µg/mL
11,B12,0.0553 µg/mL

# Biological target: T2, recombinant human FLT3 protein
# Test: ELISA on recombinant human FLT3, normalized to BSA control
# Protocol: as §1
row,Binder,Kd
1,B13,0.0284 µg/mL
2,B14,0.0115 µg/mL
3,B15,3.31 µg/mL
4,B16,0.0319 µg/mL

# Biological target: T7, VEGFR-2 on Ba/F3 cells (UniProt P35968 20-1356, limits assumed)
# T7 construct: whole, on cells
# Test: flow cytometry, cell surface binding to Ba/F3 pMIY cells expressing VEGFR, MFI ratio normalized to IgG1, mean ± s.d. of n=3
row,Binder,binding result
1,B1,no binding
